# US20100040616A1 (published 2010)
# B1: mAb 1A11 (murine anti-human CD127 monoclonal antibody) (antibody, mouse IgG1, V domains shown)
# VH: EVQLQQSGPELLKPGASMKISCKASGYSFTGYTMNWVKQSHGKNLEWIGLINPYNGVTSYNQKFKGKATLTVAKSSSTAYMELLSLTSEDSAVYYCARGDGNYWYFDVWGAGTTVTVSS
# VL: EIVLTQSPAITAASLGQKVTITCSASSSVTYMHWYQQKSGTSPKPWIYEISKLASGVPVRFSGSGSGTSYSLTISSMEAEDAAIYYCQEWNYPYTFGGGTKLEIK
# B2: mAb GR34 (reverse engineered clone of R34.34) (antibody, mouse IgG1, V domains shown)
# VH: EVQLQQSGPELVKPGASMKISCKASGYSFTGYTMNWVKQSHGKNLEWIGLINPYSGITSYNQNFKGKATLTVDKSSSTAYMELLNLTSEDSAVYYCARGDGNYWYFDVWGAGTTVTVSS
# VL: EIILTQSPAITAASLGQKVTITCSASSSVSYMHWYQQKSGTSPKPWIYEISKLASGVPARFSGSGSGTSYSLTISSMEAEDAAIYYCQYWNYPYTFGGGTKLEIK
# B3: mAb 6C5 (murine anti-human CD127 monoclonal antibody) (antibody, mouse IgG1, V domains shown)
# VH: EVKLLESGGGLVQPGGSLKLSCAASGFAFSAYWMSWVRQAPGKGLEWIGEINPDSSTINCTPSLKDKFIISRDNAKNTLSLQMNKVRSEDTALYYCARRLRPFWYFDVWGAGTTVTVSS
# VL: DVLMTQTPLSLPVSLGDQASISCRSSQSIVQSNGNTYLEWYLQKPGQSPKLLIYKVSNRFSGVPDRFSGSGSGTDFTLKISRVEAEDLGVYYCFQGSHVPRTFGGGTKLEIK
# notes: also called Antibody 6C5
# B4: mAb 6A3 (murine anti-human CD127 monoclonal antibody) (antibody, mouse IgG1, V domains shown)
# VH: DVQLQESGPGLVKPSQSLSLTCTVTGYSITTDYAWNWIRQFPGNKLEWMGYIFYSGSTTYTPSLKSRISITRDTSKNQFFLQLNSVTTEDTATYYCARGGYDVNYFDYWGQGTTLTVSS
# VL: DIQMTQSPASQSASLGESVTITCLASQTIGAWLAWYQQKPGKSPQLLIYAATRLADGVPSRFSGSGSGTKFSFKISSLQAEDFVSYYCQQFFSTPWTFGGGTKLEIK
# B5: mAb 9B7 (murine anti-human CD127 monoclonal antibody) (antibody, IgG1, V domains shown)
# VH: QVQLQESGPGLVAPSQSLSITCTVSGFSLSRYNVHWVRQPPGKGLEWLGMIWDGGSTDYNSALKSRLSITKDNSKSQVFLKMNSLQTDDTAMYYCARNRYESGMDYWGQGTTVTVSS
# VL: DIVMTQTPSSLTVTAGEKVTMSCKSSQSLLNSGNRKNYLTWYQQKPGQSPKLLIYWASTRESGVPDRFTGSGSGTDFTLIISSVQAEDLAVYYCQNDYTYPFTFGSGTKLEIKR
# Legend:
# [1] = target: T1, recombinant human CD127 extracellular domain (CD127 ECD) (human) (UniProt P16871); experiment: blocking of IL-7/IL-7Rα binding; competitor IL-7; method not given
# T1 sequence: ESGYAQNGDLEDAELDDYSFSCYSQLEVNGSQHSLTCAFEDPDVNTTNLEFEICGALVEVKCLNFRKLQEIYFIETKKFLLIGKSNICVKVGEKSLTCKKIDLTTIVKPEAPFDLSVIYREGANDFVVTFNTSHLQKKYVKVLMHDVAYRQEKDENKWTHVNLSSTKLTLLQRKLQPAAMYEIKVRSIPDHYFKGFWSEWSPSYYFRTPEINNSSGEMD
# [2] = target: T1, recombinant human CD127 extracellular domain (CD127 ECD) (human); experiment: SPR (Biacore T100, 25 °C), antibody captured on rabbit anti-mouse IgG, CD127 ECD as analyte
# [3] = target: T2, human CD127 expressed on cells (CD127-transfected CHO cells; PBMC and CD4+ T cells in functional assays) (human, UniProt P16871 21-459); experiment: Flow cytometry cross-competition on CHO-CD127 cells: unlabelled antibody titrated against fluorescence-labelled BD anti-CD127 antibody (#552853)
# T2 construct: The construct transfected into CHO is not described further; also called CHO-CD127; IL-7Rα expressed on CHO
# T2 chain: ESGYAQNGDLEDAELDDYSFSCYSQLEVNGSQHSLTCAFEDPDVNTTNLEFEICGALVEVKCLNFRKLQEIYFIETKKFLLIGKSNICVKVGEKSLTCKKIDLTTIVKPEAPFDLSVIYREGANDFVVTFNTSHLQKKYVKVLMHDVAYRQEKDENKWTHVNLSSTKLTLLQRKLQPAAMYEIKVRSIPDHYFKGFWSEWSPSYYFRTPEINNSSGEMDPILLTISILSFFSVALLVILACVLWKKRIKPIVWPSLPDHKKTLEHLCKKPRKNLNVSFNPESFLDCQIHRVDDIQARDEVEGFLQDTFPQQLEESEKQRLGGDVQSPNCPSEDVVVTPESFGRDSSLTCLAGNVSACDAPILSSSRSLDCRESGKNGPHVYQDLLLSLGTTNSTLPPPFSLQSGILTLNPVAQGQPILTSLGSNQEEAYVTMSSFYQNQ
# Protocol: CHO-CD127 cells were prepared and washed by cold DPBS for 3 times. […] The antibody mixtures were then incubated with the CHO-CD127 cells for 30 min at 4° C. […] (FIG. 15).
# [4] = target: T1, recombinant human CD127 extracellular domain (CD127 ECD) (human); experiment: affinity for the IL-7Rα ECD (profile summary; SPR)
# [5] = target: T1, recombinant human CD127 extracellular domain (CD127 ECD) (human); experiment: SPR (Biacore T100), CD127 ECD amine-coupled on CM5, antibody (supernatant material) as analyte
# [6] = target: T1, recombinant human CD127 extracellular domain (CD127 ECD) (human); experiment: ELISA: recombinant human CD127 ECD coated at 5 ug/ml, 9B7 hybridoma material titrated, HRP goat anti-mouse IgG detection
Binder,IC50 [1] [µg/mL],Kd [2] [nM],koff [2] [s⁻¹],kon [2] [M⁻¹ s⁻¹],IC50 (read off the curve) [3] [µg/mL],Kd [4] [nM],koff [4] [s⁻¹],Kd [5] [nM],EC50 (read off the curve) [6] [µg/mL]
B1,1.79,3.44,0.000251,,,,,,
B2,2.29,15.3,0.000875,,,,,,
B3,,24.4,0.000436,17900,~70,,,,
B4,1.92,7.74,0.000146,18900,,7.99,0.000334,,
B5,,,,,,,,0.556,0.6
